Data published in US20240173395A1.

Biological target: ZIKV sE-WT protein (Zika virus)
Experiment: SPR (BIOCORE8000), sE amine-coupled on CM5 chip, antibody as mobile phase

2A10G6 antibody
Kd: 9.13 nM
